In the domain aggregation screens of Martell et al. (2025):

Test: soluble fraction after stress (log2 fold change); higher = more stays soluble; pooled small domains, quantitative proteomics
Conditions: stress: pH 4
How it was run: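 Small protein domains from pooled custom libraries were exposed to pH 4, then quantified with high-throughput quantitative proteomics. The fold change in how much of each domain remains soluble is read as aggregation propensity. It is given as log2, with higher values meaning more stayed soluble.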

Compared with “HMDPNFKYIIRIANSDVSGEQKLAYALTSIRGIGERTSNAIIQKLGLDSTQLAGKLTDKNVEDIESA”, “HMLGKNEAKEYKVAYGDIGKMPALIMGLVPLPKPPVVDERLRTLYVTATPEQHREIEAIMNRI” is lower in “soluble fraction (log2)” value: -0.0403 for the first, -0.306 for the second.

Compared with “HMEIETPEIRAIHDLLELLANKAKKPEQEQFVQAHPEVQWAKVEANKNGTFAVGKVKAYLKTLQA”, “HMLPITPGQKYKFVVKSAEEAAAIIRDKLGEMAQVISVRQVEGEGLARFLKSPKLEIIAQVPVA” is higher in “soluble fraction (log2)” value: -0.568 for the first, -0.349 for the second.

First: HMSRESNISTGRQLLEAQLPTWGYKKVEDIPSKQMKTALDAFNYKDVESLLQGLGEGSVALTTALRRLMP
Second: HMRKDWTPGAFVEAFVNDTPATRSTILAKAVSAGLSRWAADNLLRTADNDGLMVRQGSGKRNEPFTYRRGP
The “soluble fraction (log2)” value of the first is lower: -0.926 for the first, 0.22 for the second.

“HMTEEVIIQNYIGKNFNDVRDELEAKGITVDEPNMKYSDEFKENTIMAQSIKPGQPLKPGGFNSIKFDVS” and “HMPKMDGLTVMEQVNQDHFVNKRPYFIVITAVGQEKITEDAFNKGANYYVMKPFNNNMLLERIKSVRK” are within 0.2 log units of each other in “soluble fraction (log2)” value: 0.147 for the first, 0.0916 for the second.

“HMQEESISWKEFLELDIIGDKKKRLKVYDLFHLGYGNAKTLFKRLNMVGISREMIEKELENEGY” and “HMPLTKKLETLFSLFPKYEKELKKKGVTRIHVWANYKEEYPDGIGRSQFIHYYSFWKKQVSP” are within 0.2 log units of each other in “soluble fraction (log2)” value: -0.0561 for the first, -0.045 for the second.

Going from “HMGAVVSPMPGVILDIKVKEGDSVSEGQTVIILEAMKMENEIVSEFTGTVSAIRVKKGDTVDTDAVLVEI” to “HMSVEYRKTLSDGNEYQIVKEKNGYVIKKSLNEGLDYLEPMKNRKYYSSYSQAFKRLNLIAKEVNINEGYD”, the “soluble fraction (log2)” value rises from -1.04 to 0.0946.

“HMLDPVLQREKDESFTDYHIRLFKNKDTYHIDTKTIATLLNKDQGTNYDESKWRKDFKQYERWNDYIMSKN” and “HMSIPVLKDGTYESWGNEKVYKVGDRVMVGSNGYVAKWWNQDETPEKAIINPNDSPWRPMTESEIMEVLK” are within 0.2 log units of each other in “soluble fraction (log2)” value: -0.155 for the first, -0.113 for the second.

Compared with “HMNQASLTYSEFIANVESKAITRVTISGDTISGILADGKPFQTIYPMADLELLPILRRSGVDINVKEVQ”, “HMNFHLEHHIAELLYRSIRGELSDFERQELNQWRSDSPMHETLFMRLQDDEYIDEELGVFIK” is lower in “soluble fraction (log2)” value: 0.22 for the first, -1.89 for the second.

Compared with “HMKPDMAVIVGSRTLTFATTTDRQILVLRTDGTMVNRLSMKAGETRTITLPAGVYIVNGKKIIV”, “HMSGTYIVTVQANTLDIYKSMTSNDTIGKANKGDVFQILEDMGGGYAKVSYNDVEGYISIKDGDTSIDEM” is lower in “soluble fraction (log2)” value: 0.22 for the first, -1.29 for the second.

“HMLNLNEAEKSIYVLIKKNESNNLNKVKEDSNLSNKAWDKGIKNLVKNNLVKVVKSNEGLFIQLV” and “HMVPLSPRFFDIFRKRKDLTRQNVDVYFRDHPTEITAFERYIKGLVSQSYIPAERADALLLVASQYKAK” are within 0.2 log units of each other in “soluble fraction (log2)” value: 0.196 for the first, 0.0777 for the second.

First: HMHPSNQELTKVLAQGSELVLAQKYIEASQIFTRVIEIDQTWAEAWNKRATVFYLLQNYEASQKDIDEV
Second: HMISEKEIKIIEDILARWNGKLTWDDFTSKVAKKLNLPSLSKFTLMGYPEIKQAFLTRKQTLK
The “soluble fraction (log2)” value of the first is higher: -0.135 for the first, -0.382 for the second.

Going from “HMKSVFQPIYEDLLSRIQDGRLLPGMPLPSENALAVQYGTSRPTIRRAIGLLVEKSLVIRQPGIGSIVAS” to “HMAPVTPEERAQAMEEYKAMVTIEGYTPPKNIIEQNYKRGLWSETMLNMAVTKGAITEAEKLEIMN”, the “soluble fraction (log2)” value rises from -0.493 to 0.0947.

Going from “HMTKIAFPQMLNKYRLQKNLTMEQLAEEVGKTKSTISKWEAGTRSPKIYEIEEIAKYFGVEPQTMMF” to “HMSEEVKSQPISILDLSTRASNGLKNEGIETIGELVKYSEDELLGLDKFGQNSLKEIKKKLEEIGLTLKEH”, the “soluble fraction (log2)” value rises from -0.548 to -0.0527.

Compared with “HMKKVRIPDDPEEAYRKALKTAMNIVGYKDNTEFTLREKLSERGYSGETVDAVAEFMKSKGYV”, “HMLIRKGVVSFFNDAKGYGFIKDLVTQESAFVHVNSLSETIKEHDKVTFEVEMGHKGANAVNVKLVK” is lower in “soluble fraction (log2)” value: 0.00228 for the first, -0.72 for the second.

Going from “HMSRGTRIDPNWQPSPEDRALARAEGFSDPEIDREALQFRDYWLGASGSNAVKLDWSATWRNWVRRAATNF” to “HMQAPIFMNETDGKWYFREKYLNDNHEIAYRVHPEGYDQMEDALRNSVNALNEFAAEMKELRKQV”, the “soluble fraction (log2)” value falls from -0.204 to -0.64.

Compared with “HMTTKYVAVHESKDGYWTIASKPSSKEDAEAMLGGTPKNEVGKVVTLEEAKAHKKTLGEEYLYE”, “HMQETALANFETNEGVQKVKQYVQENVPSLRGSNIVGVWTSYTPEGLTNYRTRFLTQDGQFVEVNLAYQ” is lower in “soluble fraction (log2)” value: at least 0.43 for the first, -0.885 for the second.

First: HMGLDQNTLDRVDDINDTLATGIEIGPETRGTIEELNETLANGLKAGFDEETLARVDELLRVVEDGLK
Second: HMEAEGLDFAPMPGEIGKKLWQEVSKEAWAGWLKHQTMLVNENRLSFVDPAARKYLTEQTEAYFFG
The “soluble fraction (log2)” value of the first is lower: -1.15 for the first, -0.248 for the second.

Compared with “HMNIEEQVVAEVLVKDFMKQLTPRDIHILELRKNGYTYQEIAGQLGYHTHSAVKKRVDRLAEQWLAYTQGH”, “HMHTDDDGITEAFPHLRLLSLGEDILDLLEKSRFIRKLNNELVYYVVDFREQNSIDGRRYHPSIYHNL” is lower in “soluble fraction (log2)” value: -0.739 for the first, -1.31 for the second.

With “HMGLASEVKTEDVLNEEKYDFEPDLIGNNNEAIYQNKQTGSYVLFDRNQNKVTKVLSAGEVLNHSKYNE” the “soluble fraction (log2)” value was 0.342.
